Results on three variants are retold here after IntAct's records for PubMed 17891150.

The chains are these.
B1: Trinucleotide repeat-containing gene 6B protein (Homo sapiens), Q9UPQ9-2 (parent)
chain: MQTNEGEVSEESSSKVEQEDFVMEGHGKTPPPGEESKQEKEQEREEQLMEDKKRKKEDKKKKEATQKVTEQKTKVPEVTKPSLSQPTAASPIGSSPSPPVNGGNNAKRVAVPNGQPPSAARYMPREVPPRFRCQQDHKVLLKRGQPPPPSCMLLGGGAGPPPCTAPGANPNNAQVTGALLQSESGTAPVWSKSTPPAPDNGTSAWGEPNESSPGWGEMDDTGASTTGWGNTPANAPNAMKPNSKSMQDGWGESDGPVTGARHPSWEEEEDGGVWNTTGSQGSASSHNSASWGQGGKKQMKCSLKGGNNDSWMNPLAKQFSNMGLLSQTEDNPSSKMDLSVGSLSDKKFDVDKRAMNLGDFNDIMRKDRSGFRPPNSKDMGTTDSGPYFEKGGSHGLFGNSTAQSRGLHTPVQPLNSSPSLRAQVPPQFISPQVSASMLKQFPNSGLSPGLFNVGPQLSPQQIAMLSQLPQIPQFQLACQLLLQQQQQQQLLQNQRKISQAVRQQQEQQLARMVSALQQQQQQQQRQPGMKHSPSHPVGPKPHLDNMVPNALNVGLPDLQTKGPIPGYGSGFSSGGMDYGMVGGKEAGTESRFKQWTSMMEGLPSVATQEANMHKNGAIVAPGKTRGGSPYNQFDIIPGDTLGGHTGPAGDSWLPAKSPPTNKIGSKSSNASWPPEFQPGVPWKGIQNIDPESDPYVTPGSVLGGTATSPIVDTDHQLLRDNTTGSNSSLNTSLPSPGAWPYSASDNSFTNVHSTSAKFPDYKSTWSPDPIGHNPTHLSNKMWKNHISSRNTTPLPRPPPGLTNPKPSSPWSSTAPRSVRGWGTQDSRLASASTWSDGGSVRPSYWLVLHNLTPQIDGSTLRTICMQHGPLLTFHLNLTQGTALIRYSTKQEAAKAQTALHMCVLGNTTILAEFATDDEVSRFLAQAQPPTPAATPSAPAAGWQSLETGQNQSDPVGPALNLFGGSTGLGQWSSSAGGSSGADLAGASLWGPPNYSSSLWGVPTVEDPHRMGSPAPLLPGDLLGGGSDSI

The variants in the assay derive from B1. The following applies: with ago2_human AGO2, Q9UKV8.
ago2_human AGO2, Q9UKV8, sequence (Q9UKV8 whole entry): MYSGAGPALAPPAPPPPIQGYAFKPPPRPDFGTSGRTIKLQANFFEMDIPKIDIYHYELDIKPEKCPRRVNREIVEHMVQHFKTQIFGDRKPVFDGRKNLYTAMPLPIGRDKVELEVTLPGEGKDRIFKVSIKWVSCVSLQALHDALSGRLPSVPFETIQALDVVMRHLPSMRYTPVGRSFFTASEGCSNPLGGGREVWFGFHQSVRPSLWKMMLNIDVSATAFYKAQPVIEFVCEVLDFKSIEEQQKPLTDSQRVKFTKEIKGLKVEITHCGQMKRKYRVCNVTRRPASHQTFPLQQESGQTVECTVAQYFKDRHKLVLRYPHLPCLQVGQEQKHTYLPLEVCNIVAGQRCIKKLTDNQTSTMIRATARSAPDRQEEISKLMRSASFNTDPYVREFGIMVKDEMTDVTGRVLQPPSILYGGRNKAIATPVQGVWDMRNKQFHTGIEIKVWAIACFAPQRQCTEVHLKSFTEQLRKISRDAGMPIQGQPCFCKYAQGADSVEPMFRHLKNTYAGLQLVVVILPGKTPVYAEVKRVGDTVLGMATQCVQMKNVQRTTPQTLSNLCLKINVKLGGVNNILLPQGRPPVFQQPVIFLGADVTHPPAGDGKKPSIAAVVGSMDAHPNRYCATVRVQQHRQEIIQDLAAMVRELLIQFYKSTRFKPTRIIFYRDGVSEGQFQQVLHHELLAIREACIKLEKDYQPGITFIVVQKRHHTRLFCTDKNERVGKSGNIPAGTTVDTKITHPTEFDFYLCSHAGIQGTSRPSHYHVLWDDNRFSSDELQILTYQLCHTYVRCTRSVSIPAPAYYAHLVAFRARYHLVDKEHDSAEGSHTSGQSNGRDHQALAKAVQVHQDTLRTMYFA
Turning to W205F, the “effect of a mutation on the interaction” value is reported as “disrupting interaction”.

Consider W205A;W215A, for which the “effect of a mutation on the interaction” value is “disrupting interaction”.

Consider W215F, for which the “effect of a mutation on the interaction” value is listed as “disrupting interaction”.
